Results published in PMC5642512.
Blank lines part the entries; values can stand above or below the substance they belong to.

How the values were obtained:
[1] = biological target: Nur77 (UniProt P22736); assay: co-IP of transfected tagged proteins; details: reference: wild-type Flag-Bcl-2
[2] = biological target: Nur77 (UniProt P22736); assay: co-IP anti-Flag (Nur77), anti-Myc (Bcl-2) blot; details: reference: wild-type Myc-Bcl-2; sites S87

- binding against the reference ([1]; sites S87): weaker
Substance: Bcl-2 (from UniProt P10415) Flag-Bcl-2/S87A

- binding against the reference ([1]; sites T56): weaker
Substance: Bcl-2 (from UniProt P10415) Flag-Bcl-2/T56A

- binding against the reference [2]: lost
Substance: Bcl-2 (from UniProt P10415) Myc-Bcl-2/S87A
